Test results as given in paper PMC3602595 (2013).

Target: T1, HasR TonB box dodecamer peptide (Serratia marcescens)
T1 chain: ALDSLTVLGAGG
Assay: ITC

B1: TonBCTD CTD (protein)
chain: not shown
- Kd: ~50 µM
